# Measurements as given in publication doi:10.1101/2025.06.10.658772 (bioRxiv, 2025).
# T1: C-terminally LgBiT-fused Lc-GPR25 (coelacanth (Latimeria chalumnae), UniProt H3AQL3 1-365)
# T1 sequence: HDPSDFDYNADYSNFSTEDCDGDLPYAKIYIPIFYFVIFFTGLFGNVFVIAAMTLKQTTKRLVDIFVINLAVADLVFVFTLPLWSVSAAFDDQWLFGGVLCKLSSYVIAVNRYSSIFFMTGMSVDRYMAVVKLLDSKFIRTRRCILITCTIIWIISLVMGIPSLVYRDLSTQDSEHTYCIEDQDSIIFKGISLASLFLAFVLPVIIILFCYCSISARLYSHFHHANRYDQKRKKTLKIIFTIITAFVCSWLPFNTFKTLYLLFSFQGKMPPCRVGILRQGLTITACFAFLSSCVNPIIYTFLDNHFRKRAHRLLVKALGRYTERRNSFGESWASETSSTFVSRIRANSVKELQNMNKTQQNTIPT
# T2: C-terminally large NanoLuc fragment (LgBiT)-fused Dr-GPR25 (zebrafish (Danio rerio), UniProt A0AC58GT18 1-377)
# T2 sequence: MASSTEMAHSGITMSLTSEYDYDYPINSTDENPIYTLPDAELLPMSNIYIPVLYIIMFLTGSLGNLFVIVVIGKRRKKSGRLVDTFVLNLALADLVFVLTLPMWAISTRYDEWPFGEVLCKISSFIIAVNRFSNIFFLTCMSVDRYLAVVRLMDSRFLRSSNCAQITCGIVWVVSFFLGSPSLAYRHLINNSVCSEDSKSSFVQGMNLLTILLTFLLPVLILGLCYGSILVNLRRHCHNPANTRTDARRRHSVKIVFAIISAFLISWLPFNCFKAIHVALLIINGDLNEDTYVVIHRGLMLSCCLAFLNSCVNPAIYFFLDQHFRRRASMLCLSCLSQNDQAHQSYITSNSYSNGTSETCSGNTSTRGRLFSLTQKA
# B1: N-terminally 6×His-tagged wild-type (WT) human CXCL17 (ligand)
# chain: SSLNPGVARGHRDRGQASRRWLQEGGQECECKDWFLRAPRRKFMTVSGLPKKQCPCDHFKGNVKKTRHQRHHRKPNKHSRACQQFLKQCQLRSFALPL
# Columns and labels:
# [1] = target: T1, C-terminally LgBiT-fused Lc-GPR25; assay: cell-based or functional assay
# [2] = target: T2, C-terminally large NanoLuc fragment …; assay: cell-based or functional assay
binder,measurement,setting,value
B1,"NanoBiT-based β-arrestin recruitment (SmBiT-ARRB2), EC50 of the dose curve",[1],~0.3 µM
same,"NanoBiT-based β-arrestin recruitment (SmBiT-ARRB2), maximal effect",[1],~3 fold over background
same,"NanoBiT-based β-arrestin recruitment (SmBiT-ARRB2), EC50 of the dose curve",[2],~0.06 µM
same,"NanoBiT-based β-arrestin recruitment (SmBiT-ARRB2), maximal effect",[2],~5 fold over background
